Measurements reported in the supplement of paper PMC7877785.
± gives the uncertainty stated by the source.

Test: self-splicing fitness, log relative to wild type (ln ratio); higher = more splicing; Tetrahymena group I intron in knt gene, E. coli kanamycin selection, DiMSum; sequences stand for … in CUCUCU…GGAGGGAAAAGUUAUCAGGCAUGCACCUGGUAGCUAGUCUUUAAACCAAUAGAUUGCAUCGGUUUAAAAGGCAAGACCGUCAAAUUGCGGGAAAGGGGUCAACAGCCGUUCAGUACCAAGUCUCAGGGGAAACUUUGAGAUGGCCUUGCAAAGGGUAUGGUAAUAAGCUGACGGACAUGGUCCUAACCACGCAGCCAAGUCCUAAGUCAACAGAUCUUCUGUUGAUAUGGAUGCAGUUCACAGACUAAAUGUCGGUCGGGGAAGAUGUAUUCUUCUCAUAAGAUAUAGUCGGACCUCUCCUUAAUGGGAGCUAGCGGAUGAAGUGAUGCAACACUGGAGCCGCUGGGAACUAAUUUGUAUGCGAAAGUAUAUUGAUUAGUUUUGGAGUACUCGUGGUCG
Method in brief: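 Colonies from six replicate transformations of E. coli BL21(DE3) were pooled and amplicon-sequenced on an Illumina HiSeq 2500. The library placed an intron with all eight P1ex-region nucleotides randomised inside the knt kanamycin-resistance gene on pET-22b(+), and cells grew overnight at 37°C or 30°C on LB agar with or without 25 μg/mL kanamycin (plus 100 μg/mL carbenicillin, 50 μM IPTG, 0.2% rhamnose). Fitness is the DiMSum error-weighted combination of wild-type-normalised replicate fold changes, kanamycin versus none.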

| Sequence | self-splicing fitness (ln) (30 °C) | self-splicing fitness (ln) (37 °C) |
| --- | --- | --- |
| UACAAGCAAUAUUACGAGCU | -3.19 ± 0.12 | -1.58 ± 0.11 |
| UUCAAGCAAUAUUACGGGCU | -3.7 ± 0.21 | -1.81 ± 0.16 |
| CGCGAGCAAUAUUACGCUGG | -1.39 ± 0.18 | -1.31 ± 0.28 |
| GAGCAGCAAUAUUACGCAAA | -1.4 ± 0.2 | -0.683 ± 0.14 |
| AUUAAGCAAUAUUACGUGCU | -1.58 ± 0.15 | -0.835 ± 0.14 |
| ACGCAGCAAUAUUACGCCGG | -2 ± 0.11 | -0.692 ± 0.15 |
| GGCAAGCAAUAUUACGGAGG | -4.1 ± 0.18 | -2.87 ± 0.16 |
| AGUAAGCAAUAUUACGGUCG | -1.95 ± 0.083 | -0.559 ± 0.087 |
| UCCGAGCAAUAUUACGCUAA |  | -2.86 ± 0.32 |
| GACGAGCAAUAUUACGUUCU | -4.53 ± 0.37 | -2.52 ± 0.24 |
| UUUGAGCAAUAUUACGACAG | -2.8 ± 0.15 | -1.81 ± 0.18 |
| GGAUAGCAAUAUUACGCCGU | -1.74 ± 0.25 | -0.441 ± 0.2 |
| AAUCAGCAAUAUUACGCCGA | -1.17 ± 0.09 | -0.332 ± 0.11 |
| GAGUAGCAAUAUUACGGAAC | -3.8 ± 0.34 | -1.79 ± 0.22 |
| ACCGAGCAAUAUUACGUCGC | -3.69 ± 0.28 |  |
| GGCAAGCAAUAUUACGAAGU | -1.94 ± 0.093 | -1.89 ± 0.12 |
| GGGCAGCAAUAUUACGGUAG | -3.2 ± 0.19 | -1.34 ± 0.19 |
| UCGGAGCAAUAUUACGGUAC | -3.19 ± 0.29 | -3.59 ± 0.36 |
| ACGAAGCAAUAUUACGUUCC | -2.97 ± 0.2 | -1.29 ± 0.16 |
| CCCUAGCAAUAUUACGCCAU | -4.3 ± 0.42 | -2.43 ± 0.39 |
| ACACAGCAAUAUUACGCGUC | -3.69 ± 0.11 | -3.32 ± 0.15 |
| GCCCAGCAAUAUUACGUAAA | -0.596 ± 0.06 | -0.718 ± 0.097 |
| UUUAAGCAAUAUUACGCUUU | -3.6 ± 0.35 | -2.95 ± 0.23 |
| GAUGAGCAAUAUUACGAUCG | -1.9 ± 0.35 | -2.32 ± 0.24 |

| Sequence | self-splicing fitness (ln) (30 °C) | self-splicing fitness (ln) (37 °C) |
| --- | --- | --- |
| UGCAAGCAAUAUUACGGACC | -0.803 ± 0.088 | -1.12 ± 0.16 |
| GGAGAGCAAUAUUACGUCAU | -2.38 ± 0.31 | -2.61 ± 0.33 |
| CACUAGCAAUAUUACGAUGU | -4.05 ± 0.37 | -1.63 ± 0.19 |
| GAGCAGCAAUAUUACGGCCU | -0.475 ± 0.07 | -0.0538 ± 0.081 |
| GGGUAGCAAUAUUACGGGUC | -2.32 ± 0.17 | -1.1 ± 0.18 |
| GGUCAGCAAUAUUACGAUAA | 0.11 ± 0.092 | 0.447 ± 0.15 |
| AAAUAGCAAUAUUACGGUCU | 0.108 ± 0.076 | -0.388 ± 0.084 |
| GCUAAGCAAUAUUACGUUAC | -3.73 ± 0.26 | -1.01 ± 0.16 |
| GACCAGCAAUAUUACGACGU | -0.417 ± 0.064 | 0.321 ± 0.078 |
| UGGCAGCAAUAUUACGAUUG | -1.07 ± 0.074 | 0.135 ± 0.093 |
| UUAGAGCAAUAUUACGCUUA | -0.675 ± 0.099 | -0.447 ± 0.12 |
| CGCAAGCAAUAUUACGAUUG | -2.21 ± 0.056 | -1.01 ± 0.07 |
| CCCUAGCAAUAUUACGGCUG | -2.46 ± 0.28 | -1.38 ± 0.3 |
| GCCGAGCAAUAUUACGUUGC | -3.96 ± 0.25 | -2.73 ± 0.22 |
| AUGAAGCAAUAUUACGAACA | -0.423 ± 0.1 | 0.795 ± 0.15 |
| GGUAAGCAAUAUUACGGUGU | -1.81 ± 0.1 | -0.484 ± 0.11 |
| UUAUAGCAAUAUUACGAAUG | -2.43 ± 0.16 | -0.727 ± 0.17 |
| UGCCAGCAAUAUUACGACCC | -3.56 ± 0.24 | -1.42 ± 0.21 |
| AGGGAGCAAUAUUACGGCCA | -2.33 ± 0.33 | -0.91 ± 0.31 |
| UUCCAGCAAUAUUACGCAUG | -3.41 ± 0.25 | -1.7 ± 0.16 |
| GCUUAGCAAUAUUACGCUUU | -1.23 ± 0.064 | -0.413 ± 0.084 |
| GUUAAGCAAUAUUACGCAUC | -2.3 ± 0.1 | -0.951 ± 0.095 |
| AAAGAGCAAUAUUACGGAGU | -3.33 ± 0.2 | -3.16 ± 0.26 |
| CUGAAGCAAUAUUACGGAUG | -2.18 ± 0.1 | -1.14 ± 0.1 |

| Sequence | self-splicing fitness (ln) (30 °C) | self-splicing fitness (ln) (37 °C) |
| --- | --- | --- |
| CAACAGCAAUAUUACGGGAG | -1.23 ± 0.051 | -1.03 ± 0.063 |
| AGGUAGCAAUAUUACGCUUA | -1.2 ± 0.017 | -0.467 ± 0.034 |
| AAUUAGCAAUAUUACGCCGC | -2.94 ± 0.36 | -1.66 ± 0.24 |
| GUCCAGCAAUAUUACGCUCG | -0.909 ± 0.15 | -1.3 ± 0.22 |
| CGCAAGCAAUAUUACGUAUG | -2.25 ± 0.091 | -0.723 ± 0.091 |
| ACAGAGCAAUAUUACGUGCU | -4.27 ± 0.37 | -2.48 ± 0.41 |
| GCCCAGCAAUAUUACGUCUC | -1.3 ± 0.085 | -0.175 ± 0.086 |
| GUUCAGCAAUAUUACGGCGC | -0.314 ± 0.094 | 0.633 ± 0.13 |
| AACCAGCAAUAUUACGCACA | -0.335 ± 0.054 | 0.326 ± 0.072 |
| UCUUAGCAAUAUUACGACGU | -0.316 ± 0.1 | -0.505 ± 0.13 |
| GCACAGCAAUAUUACGAGGU | -1.85 ± 0.095 | 0.0148 ± 0.11 |
| GCCUAGCAAUAUUACGCCCA | -2.69 ± 0.25 | -0.792 ± 0.2 |
| CAGAAGCAAUAUUACGCUCG | -1.31 ± 0.11 | -0.994 ± 0.15 |
| UUAUAGCAAUAUUACGUAGA | -1.34 ± 0.17 | -0.707 ± 0.17 |
| ACGCAGCAAUAUUACGGACG | -1.31 ± 0.05 | -0.318 ± 0.07 |
| CCUAAGCAAUAUUACGAUCG | -0.805 ± 0.15 | -0.185 ± 0.17 |
| GGCCAGCAAUAUUACGCAGU | -1.37 ± 0.12 | -1.86 ± 0.19 |
| UUCAAGCAAUAUUACGCGCC | -0.923 ± 0.17 | -1.38 ± 0.25 |
| ACCCAGCAAUAUUACGCUAC | -4.01 ± 0.27 | -2.38 ± 0.19 |
| CGUUAGCAAUAUUACGAUGU | -2.6 ± 0.26 | -1.78 ± 0.36 |
| GCCCAGCAAUAUUACGGCUU | -1.29 ± 0.071 | -0.757 ± 0.093 |
| GGUUAGCAAUAUUACGGAGU | -1.27 ± 0.18 | -0.724 ± 0.2 |
| UUGAAGCAAUAUUACGCUAA | -0.361 ± 0.085 | -0.109 ± 0.097 |
| CGCGAGCAAUAUUACGUGAU | -2.82 ± 0.23 | -3.59 ± 0.37 |

| Sequence | self-splicing fitness (ln) (30 °C) | self-splicing fitness (ln) (37 °C) |
| --- | --- | --- |
| AGCAAGCAAUAUUACGUCAG | -2.89 ± 0.16 | -1.55 ± 0.18 |
| UGGUAGCAAUAUUACGCCAG | -1.16 ± 0.28 | -0.742 ± 0.3 |
| AGGCAGCAAUAUUACGAGCU | -0.501 ± 0.1 | -0.299 ± 0.13 |
| UACUAGCAAUAUUACGGCUC | -1.67 ± 0.19 | -0.765 ± 0.18 |
| ACGAAGCAAUAUUACGGUGA | -2.33 ± 0.088 | -1.48 ± 0.085 |
| CGCGAGCAAUAUUACGGCGA | -2.29 ± 0.24 | -1.19 ± 0.21 |
| CGGUAGCAAUAUUACGUGUA | -3.31 ± 0.2 | -2.97 ± 0.28 |
| GGGGAGCAAUAUUACGGUUU | -1.27 ± 0.24 | -0.456 ± 0.29 |
| CGGGAGCAAUAUUACGUGUU | -5.29 ± 0.38 | -2.2 ± 0.25 |
| ACAUAGCAAUAUUACGCUGC | -2.01 ± 0.22 | -0.747 ± 0.15 |
| AUAGAGCAAUAUUACGUGAU | -2.02 ± 0.12 | -0.825 ± 0.17 |
| UUCUAGCAAUAUUACGGUAA | -1.17 ± 0.13 | -0.408 ± 0.085 |
| AGCAAGCAAUAUUACGUCGA | -1.99 ± 0.11 | -0.323 ± 0.097 |
| UGAUAGCAAUAUUACGGGCU | -2.42 ± 0.13 | -2.11 ± 0.14 |
| AGGGAGCAAUAUUACGUAUU | -2.96 ± 0.18 | -2.15 ± 0.21 |
| AAACAGCAAUAUUACGGAAA | -3.16 ± 0.18 | -1.8 ± 0.13 |
| GCGAAGCAAUAUUACGUGUA | -1.88 ± 0.093 | -1.09 ± 0.072 |
| GAUCAGCAAUAUUACGAACA | 0.0135 ± 0.15 | 0.0485 ± 0.15 |
| GAGGAGCAAUAUUACGUUAG | -4 ± 0.27 | -1.93 ± 0.27 |
| GGUAAGCAAUAUUACGUAGU | -1.48 ± 0.11 | -1.46 ± 0.17 |
| UUGGAGCAAUAUUACGGAGC | -1.47 ± 0.38 |  |
| GUUAAGCAAUAUUACGUAAU | -2.09 ± 0.079 | -1.49 ± 0.089 |
| AUUAAGCAAUAUUACGUGAG | -0.882 ± 0.049 | -0.33 ± 0.081 |
| CUCCAGCAAUAUUACGCUAA | -3.28 ± 0.27 | -2.62 ± 0.42 |
